# Tests used:
# L6 antigen (human) [1] = target: L6 antigen (human) (UniProt P30408); test: inhibition of the binding of FITC-labelled mouse L6 to 3347 cells, flow cytometry; 50% inhibition
# L6 antigen (human) [2] = target: L6 antigen (human) (UniProt P30408); test: cell-based or functional assay
# L6 antigen (human) [3] = target: L6 antigen (human) (UniProt P30408); test: inhibition of the binding of FITC-labelled mouse L6 to 3347 cells, flow cytometry; 50% inhibition; run with the pooled chimeric L6
# L6 antigen (human) [4] = target: L6 antigen (human) (UniProt P30408); test: inhibition of the binding of FITC-labelled mouse L6 to 3347 cells, flow cytometry; 50% inhibition; run with the chimeric L6 from ascites
# Chain of UniProt P30408 (P30408 whole entry): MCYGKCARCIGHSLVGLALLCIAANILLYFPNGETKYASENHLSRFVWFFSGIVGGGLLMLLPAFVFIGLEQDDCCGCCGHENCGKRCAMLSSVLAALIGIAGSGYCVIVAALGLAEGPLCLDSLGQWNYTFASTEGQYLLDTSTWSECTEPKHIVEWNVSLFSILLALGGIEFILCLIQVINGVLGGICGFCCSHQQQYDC
IC50 (L6 antigen (human) [1]) [µg/mL],IC50 (L6 antigen (human) [3]) [µg/mL],IC50 (L6 antigen (human) [4]) [µg/mL],Substance,tumor killing activity (ADCC or CDC) (L6 antigen (human) [2]) [µg/mL]
3.4,,,chimeric L6 antibody (from UniProt P01857 1-330),0.01
,2,2.7,"L6 monoclonal antibody (mouse, IgG2a)",

# Reference: patent publication EP0266663A1
